Measurements taken from patent US20230087805A1.
pKd: −log10 of the molar value.

Key:
[1] = biological target: C1ND (recombinant human CEACAM1 N-domain, residues 35-142, C-terminal Strep-Tag II, made in Expi293 cells) (human) (UniProt P13688); assay: ELISA, C1ND coated, HopQ fragments titrated
[2] = biological target: C1ND (recombinant human CEACAM1 N-domain, residues 35-142, C-terminal Strep-Tag II, made in Expi293 cells) (human) (UniProt P13688); assay: isothermal titration calorimetry, HopQ^AD titration with C1ND, 25 °C, 1:1 stoichiometry

Substance	fold reduction of CEACAM1 binding affinity against HopQ^AD [1]	pKd [2]
HopQ^ADΔID (HopQ^AD in which amino acids 190-218 of the mature protein are replaced by two glycines)	10 fold	
HopQ^AD (HopQ adhesin domain; soluble HopQ type I fragment of H. pylori strain G27, residues 37-463, C-terminal 6x His-tag)		6.53
